Changes are numbered by the printed parent chain. Values joined by “and” are separate entries in the source; they are usually repeats but may differ in a detail not shown here. Identical values can stand only once.

In general, Kd refers to a measure of binding affinity in units of concentration. The low end stands for a tighter complex, the high end for a looser complex. By IC50 is commonly meant the concentration needed to halve the response being measured.

Experiment [1] concerns the target T1, human IgE with the M1′ sequence (long form of membrane IgE) expressed on transduced BJAB or Daudi cells (human, UniProt P01854 116-546).
T1 construct: Full-length heavy and light chains of the U266 IgE B cell receptor, retrovirally expressed; also called IgE/M1′; IgE-M1′
The experiment in a line: Scatchard Human M1' (nM), overall Mean of three experiments. On the procedure:
(§1) The BJAB or Daudi cells expressing various forms of IgE with or without M1′ (Human, Rhesus, Cyno) were prepared for binding in cold Binding buffer composed of base media, with 10 mM HEPES pH 7.4, and 2% FBS as well as 40 ug/ml human IgG. Cells are diluted to concentration of 1.7×10⁶ cells/ml, and kept on ice until they are added to the assay. The proteins/antibodies are iodinated with the Iodogen method. Various concentrations of cold protein are prepared in triplicate, using a 1:2 dilution starting with the saturation concentration and ending at a concentration of zero, with a total of 14 concentrations. Hot protein of a single concentration is added to all dilutions compete with the cold protein. Lastly the cells are added to the hot and cold protein mixture, 250,000 cells per sample were used. Assay is kept at 4° C. for 4 hours, shaking. Each sample is then collected and filtered on membrane, washed at least 3 times with binding buffer, allowed to dry and then counted for 1 minute using Perkin Elmer Wizard 1470 Auto Gamma Counter.

For experiment [2], the target named is T2, cyno IgE/M1′ expressed on transduced Daudi cells (human IgE/primate M1′ cassette, cynomolgus) (cynomolgus monkey).
T2 construct: The construct is described as a 'human IgE/primate M1′ cassette'; also called Cyno M1′
T2 chain: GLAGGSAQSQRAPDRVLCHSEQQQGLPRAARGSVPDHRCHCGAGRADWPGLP
As to the kind of experiment: Scatchard analysis on cells expressing cyno IgE/M1′.

Experiment [3] deals with T1, human IgE with the M1′ sequence (long …). As to the kind of experiment: Scatchard, iodinated antibody on IgE/M1′ cells.
For experiment [4], the target named is T3, rhesus IgE/M1′ expressed on transduced Daudi cells (human IgE/primate M1′ cassette, rhesus) (rhesus monkey).
T3 construct: The construct is described as a 'human IgE/primate M1′ cassette'; also called Rhesus M1′
T3 chain: T2 chain with R38H
As to the kind of experiment: Scatchard analysis on cells expressing rhesus IgE/M1′.

Experiment [5] deals with T4, M1′ peptide 4 (human).
T4 peptide: SAQSQRAPDRVLCHS
As to the kind of experiment: ELISA on coated antigen, relative OD450/650. The procedure: (§2) 15 peptides were generated spanning the sequence surrounding and including human M1′ (Clifford Quan) (FIG. 5A). Peptides were resuspended in either dH20 or 50% DMSO. […] 0.05% Tween-20, 10 ppm Proclin., 0.2% BgG, 0.25% Chaps, 5 mM EDTA, 0.35M NaCl]. […] Plates were then incubated for 2 hours at room temperature. Murine antibody plates were washed 3 times and then anti-mouse IgG1-Biotin (BD Biosciences (A85-1) #553441) was added (1:10,000, 100 μl per well) and incubated for 1 hour at RT. Following 3 washes, SA-HRP (BD Biosciences #554066) was added (1:20,000, 100 μl per well) and incubated for 1 hour. Human IgG1 antibody plates were washed as before and anti-hulgG.Fc-HRP (Jackson ImmunoResearch (#109-036-098)) was added (1:10,000, 100 μl per well) and incubated for 1 hour at RT. Once secondary incubations were complete, plates were washed 6 times and TMB substrate (BD OptEIA #555214) was added (100 μl per well). The substrate-HRP reaction was stopped with 1M H3PO4 after ˜4 minutes. Plates were then read at 450/650. Data was represented as relative OD (OD₄₅₀/CD650).
(In an ELISA, binding on a coated surface is turned into a signal by an enzyme label.)

The target in experiment [6] is T5, human IgE CH3-CH4-M1′/Fc fusion protein (human).
T5 construct: also called M1′ (immobilized)
T5 sequence (chain, as listed by the source limits assumed): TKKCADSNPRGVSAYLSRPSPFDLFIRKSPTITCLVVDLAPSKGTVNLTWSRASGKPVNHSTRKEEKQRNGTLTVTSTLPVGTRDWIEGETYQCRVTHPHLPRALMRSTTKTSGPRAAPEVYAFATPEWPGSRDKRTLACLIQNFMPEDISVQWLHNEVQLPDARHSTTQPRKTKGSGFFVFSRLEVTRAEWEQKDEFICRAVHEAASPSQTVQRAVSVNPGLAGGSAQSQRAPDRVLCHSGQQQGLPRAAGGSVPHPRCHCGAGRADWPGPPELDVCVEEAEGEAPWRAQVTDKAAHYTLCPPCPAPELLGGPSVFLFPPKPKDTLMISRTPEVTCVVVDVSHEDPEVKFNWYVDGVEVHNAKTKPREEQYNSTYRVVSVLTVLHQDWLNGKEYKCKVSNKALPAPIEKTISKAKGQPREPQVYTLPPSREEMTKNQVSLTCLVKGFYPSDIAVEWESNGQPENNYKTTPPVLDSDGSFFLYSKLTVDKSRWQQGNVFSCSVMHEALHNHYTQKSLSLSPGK
As to the kind of experiment: SPR Biacore A100, M1′ immobilized. For orientation: In SPR one partner is held on a chip, and binding of the other changes the refractive index at the surface.

For experiment [7], the target named is T1, human IgE with the M1′ sequence (long …). The experiment in a line: competitive ECL binding on BJAB-IgE/M1′ cells vs biotinylated 26A11 or 47H4, 2nd IC50 column.
For experiment [8], the target named is T5, human IgE CH3-CH4-M1′/Fc fusion protein. As to the kind of experiment: SPR Biacore 2000, IgG immobilized, M1′-Fc analyte.
The target in experiment [9] is T1, human IgE with the M1′ sequence (long …). The experiment in a line: Scatchard analysis on cells expressing human IgE/M1′. The procedure:
as §1

For experiment [10] the target is unchanged. As to the kind of experiment: Scatchard Human M1' (nM), column Mean of exp. 3. On the procedure: as §1
For experiment [11] the target is unchanged. The experiment in a line: number printed in the titration panel; FIG. 3M calls these numbers 'Scatchard Results' (BJAB-Long cells). The procedure: (§3) In addition to relative affinity determinations by antibody titration and FACs detection, we also determined affinities of selected anti-MP antibodies to BJAB cell lines expressing IgE long form using Scatchard analysis. BJAB-Long cells were prepared for binding in cold Binding buffer composed of base media, with 10 mM HEPES pH 7.4, and 2% FBS as well as 40 μg/ml human IgG. Cells were diluted to a concentration of 1.7×10⁶ cells/ml, and kept on ice until added to the assay. The antibodies were iodinated with Iodogen method. Various concentrations of unlabelled antibody were prepared in triplicate, using a 1:2 dilution starting with the saturation concentration and ending at a concentration of zero, with a total of 14 concentrations. Iodinated antibody of a single concentration was added to all dilutions of the competitor unlabelled antibody. Lastly 250,000 BJAB-Long cells were added to each mixture of iodinated and unlabelled antibody. The samples were incubated at 4° C. for 4 hours, shaking. Each sample was then collected and filtered on a membrane, washed at least 3 times with binding buffer, allowed to dry and then measured for 1 minute using a Perkin Elmer Wizard 1470 Auto Gamma Counter.

For experiment [12] the target is unchanged. As to the kind of experiment: competitive ECL binding on BJAB-IgE/M1′ cells vs biotinylated 26A11 or 47H4, 1st IC50 column.
The target is the same in experiment [13]. The experiment in a line: Scatchard Human M1' (nM), column Mean of exp. 2. The procedure:
as §1

Experiment [14] has as its target T5, human IgE CH3-CH4-M1′/Fc fusion protein. As to the kind of experiment: SPR Biacore 2000, M1′-Fc immobilized.
In experiment [15] the target is T1, human IgE with the M1′ sequence (long …). As to the kind of experiment: Scatchard Human M1' (nM), column Measured; iodinated antibody on cells expressing human IgE/M1'. The procedure: as §1
Experiment [16] shares this target. The experiment in a line: Scatchard Human M1' (nM), column Mean of exp. 1. On the procedure:
as §3, with “Iodinated antibody of a single concentration was added to all dilutions of the competitor unlabelled antibody. Lastly 250,000 BJAB-Long cells were added to each mixture of iodinated and unlabelled antibody. The samples were incubated at 4° C. for 4 hours, shaking.” left out
The BJAB or Daudi cells expressing various forms of IgE with or without M1′ (Human, Rhesus, Cyno) were prepared for binding in cold Binding buffer composed of base media, with 10 mM HEPES pH 7.4, and 2% FBS as well as 40 ug/ml human IgG. […] Each sample is then collected and filtered on membrane, washed at least 3 times with binding buffer, allowed to dry and then counted for 1 minute using Perkin Elmer Wizard 1470 Auto Gamma Counter.

Experiment [17] addresses T6, M1′ peptide 7 (human).
T6 peptide: GQQQGLPRAAGGSVP
The experiment in a line: ELISA on coated antigen, relative OD450/650. The procedure:
as §2

For experiment [18], the target named is T7, M1′ peptide 8 (human).
T7 peptide: PRAAGGSVPHPRCH
The experiment in a line: ELISA on coated antigen, relative OD450/650. On the procedure:
as §2

The target of experiment [19] is T1, human IgE with the M1′ sequence (long …). As to the kind of experiment: Scatchard Human M1' (nM), overall Mean of two experiments. The procedure: as §1

T1 sequence (P01854 116-546 I515L limits assumed): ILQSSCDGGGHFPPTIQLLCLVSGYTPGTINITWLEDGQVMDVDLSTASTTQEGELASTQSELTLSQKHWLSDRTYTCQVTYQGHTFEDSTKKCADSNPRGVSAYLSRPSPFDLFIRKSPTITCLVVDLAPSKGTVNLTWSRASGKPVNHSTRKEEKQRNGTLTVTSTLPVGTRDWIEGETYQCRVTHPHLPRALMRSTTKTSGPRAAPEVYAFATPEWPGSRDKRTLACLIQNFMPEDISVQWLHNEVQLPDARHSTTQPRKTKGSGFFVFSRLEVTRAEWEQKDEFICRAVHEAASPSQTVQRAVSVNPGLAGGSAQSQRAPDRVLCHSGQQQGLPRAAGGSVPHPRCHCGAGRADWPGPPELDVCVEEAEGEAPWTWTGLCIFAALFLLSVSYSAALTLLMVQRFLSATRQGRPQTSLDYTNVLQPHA

B1: murine anti-IgE/M1′ antibody 47H4 (antibody, V domains shown)
VH: EVKLVESGGGLVQPGGSRKLSCAASGFTFSDYGMAWVRQAPGKGPEWVAFISDLAYTIYYADTVTGRFTISRENAKNTLYLEMSSLRSEDTALYYCARDNWDAMDYWGQGTSVTVSS
VL: DIVLTQTPLSLPVSLGDQASISCRSSQSLVHNNGNTYLHWYLQKPGQSPKLLIYKVSNRFSGVPDRFSGSGSGTDFTLKISRLEAEDLGVYFCSQNTLVPWTFGGGTKVEIKR
notes: mIgG1 hybridoma antibody; also called mu47H4; 47H4 mIgG1
B1: the Kd was 0.57 nM in [1]; 0.97 nM in experiment [2]; 0.4 nM in experiment [3]; 0.77 nM in experiment [4]; 5.6 nM in experiment [6]; 1.5 nM in experiment [8]. Also, the equilibrium dissociation constant (Kd) in experiment [9] came to 0.79 nM; in experiment [10] it was 0.39 nM; in experiment [11], 0.39 nM; in experiment [13] it was 0.54 nM; in experiment [14], 12 nM. Moreover, the binding result in experiment [5] is on record as “binds”. The figures for the IC50 in [7] and in experiment [12] were 57 nM and 62 nM, respectively.

B2: murine anti-IgE/M1′ antibody 26A11 (antibody, V domains shown)
VH: EVQLQQSGPELVKPGASVKMSCKASGYTFTDYYMMWVKQSHGKSLEWIGDINPNNYDTSYNQKFKGKATLTVDKSSSTAYIQLNSLTSEDSAVYYCASKAYWGQGTLVTVSA
VL: DIQMTQTTSSLSASLGDRVTITCRSSQDISNSLNWYQQKPDGPVKLLIYSTSRLHSGVPSRFSGSGSGTDYSLTISNLEQEDLATYFCQQGHTLPWTFGGGTKVEIKR
notes: mIgG1 hybridoma antibody; also called mu26A11; 26A11 mIgG1
B2: the Kd in [15] was 1.68 nM and 2.59 nM and 1.2 nM; in [16], 2.14 nM; in [3], 1.6 nM; in [6], 0.3 nM; in [8], 5.1 nM; in experiment [9], 2.3 nM. Further, the Kd in experiment [19] is 1.94 nM; in experiment [13], 1.75 nM. Moreover, the binding result in [17] and in [18] was “binds” each time. Moreover, in [12], the IC50 amounted to 12 nM.

For the origin of these results see patent US20120149881A1 (Genentech, published 2012).
